Data taken from the DeepSol protein solubility set.

Experiment: soluble on expression in E. coli; label from the status in PepcDB or PDB records

Question: Which “soluble on expression in E. coli” value does the source give for “MGSDKIHHHHHHMMTQVPDTPQALYRALPSMDSLLADAVLAPLLQRYGKAAVKAALDSQLRTARELIAQERRLPAWCANPSLLNGYLVDQLSKDYSHSLKPVWNLTGTILHTNLGRAQQSEAAIRAVTSVMRYPTPLEFELAAGERGHRDNAISGLIQRLTGAEACCVVNNNAAAVLLMLSAVAAGKEVIVSRGELVEIGGAFRIPDIMRQAGCTLVEVGSTNRTHLKDYEQAITENTAAIMKVHTSNYHISGFTAAVEEARLGQLCRERGILLISDLGSGSLTDLRRFGLKQEPTPQAMLADGVDLVSFSGDKLLGGPQSGLIVGKQALINKLQSHPLKRALRCDKLILAALEATLIHYLNPETLDKELPIMAKFARSQAELRQIGERLQQALAPLFTPSYGLELVECQTQVGSGSQPDTFLPSIGLCFNAQEGGSLTLLEQHFKQAQRPVIGRMTQDQLRLDLRGIDDEAELLAELSTLGVQL” here?
Answer: not soluble

Question: For “MGSDKIHHHHHHMIDEIKSGKYKHGDKLPTEKELMERFNASRETVRKALERLVVKNLVIRKPGLGTFVNIEKKNKVVGILVQQITSYIFPYIALGAEEVLFANGYKMLLGNASEDPHKERQIINEWLEVGVDGLIIDPVYSATKRSNRDLIEDMAKKGTKVVLVHTNWDIEGVGSVVLDDWYGGEKAAEIFYQYGHRNVAVLYKTIHLPSVVRAQAFLKRGRELGFEKVHEKSFHVSEFTGIVMQSAFELLSLPKDQRPTAVFCYNDATALQFFLAAKRMGLKIPEDVSVIGFDDAPIGDFREILTTFEHPKEEVGKKAVEILLKMIDGEKPEKYVFKPKLIMRESVTYPKK”, which “soluble on expression in E. coli” value is on record?
Answer: not soluble

Question: For “VACMIPAPAYHPDPRFQALGGEFADPVEPADFPETVLRFRNDRAAATVGLETLDDRAWLRHFGRFEPLPDNQTRPLAMRYHGHQFRVYNPDLGDGRGFLFGQLREAGTGRLLDLATKGSGQTPWSRAGDGRLTLKGGVREILAASFLEALGVPTSRWCGL”, which “soluble on expression in E. coli” value is on record?
Answer: soluble

Question: With “MGSDKIHHHHHHMIMSEKSIVQEARDIQLAMELINLGARLQMLESETQLSRGRLIRLYKELRGSPPPKGMLPFSTDWFMTWEQNIHASMFCNAWQFLLKTGLCSGVDAVIKAYRLYLEQCPQPPEGPLLALTRAWTLVRFVESGLLELSSCNCCGGNFITHAHQPVGSFACSLCQPPSRAVKRRKLSRDAADIIPQLLDEQIEQAV” as the sequence, how does the “soluble on expression in E. coli” value read?
Answer: not soluble

Question: For “MSLTSQPREQFLLISALGPNPMELTTLLCRACVESRCAVVSSRLTRHGEFSALVLQISGSWDALARLEGSLPALTKRGDITLSMTRSNAHVTRAQALPYVAYVSAVYRPDILNELCQFFIDHNIELENLTCDTYQAPHTNTTMLNATITVTLPAGTQISWLRDQFLDFADALNLDALIEPWREGGSHHHHHH”, which “soluble on expression in E. coli” value is on record?
Answer: soluble

Question: With “MGSDKIHHHHHHMTISEARLSPQVNLLPIKRHSNEEVEETAAILKKRTIDNEKCKDSDPGFGSLQRRLLQQLYGTLPTDEKIIFTYLQDCQQEIDRIIKQSIIQKESHSVILVGPRQSYKTYLLDYELSLLQQSYKEQFITIRLNGFIHSEQTAINGIATQLEQQLQKIHGSEEKIDDTSLETISSGSLTEVFEKILLLLDSTTKTRNEDSGEVDRESITKITVVFIFDEIDTFAGPVRQTLLYNLFDMVEHSRVPVCIFGCTTKLNILEYLEKRVKSRFSQRVIYMPQIQNLDDMVDAVRNLLTVRSEISPWVSQWNETLEKELSDPRSNLNRHIRMNFETFRSLPTLKNSIIPLVATSKNFGSLCTAIKSCSFLDIYNKNQLSNNLTGRLQSLSDLELAILISAARVALRAKDGSFNFNLAYAEYEKMIKAINSRIPTVAPTTNVGTGQSTFSIDNTIKLWLKKDVKNVWENLVQLDFFTEKSAVGLRDNATAAFYASNYQFQGTMIPFDLRSYQMQIILQELRRIIPKSNMYYSWTQL” as the sequence, how does the “soluble on expression in E. coli” value read?
Answer: not soluble

Question: Which “soluble on expression in E. coli” value does the source give for “MGSDKIHHHHHHMQLPGGVQLTYCTNLHAASSLDEVRANLDRYAVPLKARLSPNAPFGIGLRLSGQESAELLEGQALAAFKAFLDERGLYVFTLNGFPYGPFHGQPVKTQVHAPDWRDAERVAYTQRLAEILAFLLPEGGEGGISTSPLSYRGWVEADSRSAWIQMTGNLVRVVETLIRLRQRWGRFIHLDLEPEPDGLLQCSDDLARFFREHLLGGGARDLAARLGIDVEQARAYLRDHVQVCFDTCHVAVMYEDPAQALQTYEQVGLRIGKVQISSALRLPLPPDPEARLDGARALVPFVEDTYLHQVIGRSRDGKIVQYPDLPPALAHVRDPQVTEWRIHFHIPVFLERAGLFASTQPEIVKTLALLREKGFTRHLEIETYTWDVLPEALKLPLLCSIEREYRWVMDVL” here?
Answer: not soluble

Question: With “SGGLLIASAHFGAYVCGTDIDYNTVHGLGKASRKNQKWRGPDENIRANLRQYGLEKFYLDVLVSDASKPSWRKGTYFDAIITDPPYGIRESTRRSGSQKDIPKGIEKCPESHVPVSLSYHLSDMFFDLLNFAAETLVLGGRLVYWLPVYTPEYTEEMVPWHPCLRLISNCEQKLSSHTARRLITMEKVKEFENRDKYSHLLSDHFLPYQGHNSFREKYFSGVTKRIAKEEKCSHE” as the sequence, how does the “soluble on expression in E. coli” value read?
Answer: not soluble

Question: Which “soluble on expression in E. coli” value does the source give for “SYPYLMLSGHQYPQMAYYRGTLKKPNQYFGPYPNSNAVRDSIQVLQKVFMLRTCEDSVFEHRDRPCLLYQIKRCTAPCVGHISEEDYRDSVREAATFLNGKTDELTRTLQHKMQTAAANLQFEEAARYRDQIQALGIMQSNQFIDSKNPNNPNDIDLLALAVSDGLVCVHWVSIRGGRHVGDKSFFPDTKNDPEPNGQDYAEAFVAQHYLGKSKPDIIISNFPVPDALKEALEGEHGKQMQFVTKTIGERKVRLKMAEQNAQMAIAQRRLQQSSQQHRIDELAKILGMDSDGLNRLECFDISHTQGEATIASCVVYDEQNIQPSQYRRYNITTAKPGDDYAAMREVLTRRYGKMQEAEANGETVKWPDAVLIDGGKGQIGVAVSVWEELGLHIPLVGIAKGPERKAGMEELILPFTGEVFRLPPNSPALHLLQTVRDESHRFAITGHRKKRDK” here?
Answer: not soluble

Question: With “AQLQNLVLKDREATPNDHTFVPRDIRDNVGEVVESTGVPIGESRFTISLRKTSNGRYKSTLKLVVPVVQSQTVNGIVTPVVVRTSYVTVDFDYDARSTTKERNNFVGMIADALKADKMLVHDTIVNLQGVY” as the sequence, how does the “soluble on expression in E. coli” value read?
Answer: soluble

Question: With “MGSDKIHHHHHHMFHTIDFSDIFSSDYSNKISFKKGEIIHSYRDYEEKTPQIGAILEGTAVLEGPTNEGRWMINALIGQHSLFGMESLLETKTAPELTEYRVRALENGTVLFIDREFLLNYLYANPQFFHLILDEVIVRYLFTSKNYKNINQAPIVKVTRILVEIIELLHLHQTEGAIELPVYVTQTFLADYCRSSRARVTEVLEELRESGLLLSKKPITISSHENLLNQIDSFQTGNGLLTR” as the sequence, how does the “soluble on expression in E. coli” value read?
Answer: not soluble

Question: With “MKYCDFNGCHNKISKGRYCEEHKRNKPRKKKDKKNIYHHENKPFYRTDAWKFVRSKVYERENGCCQRCGRFVFGRRAHVHHVIPIKEDPILKLEENNLRLLCPVCHTIEENEDKPKKVFPSYFGSPPIKNLEHHHHHH” as the sequence, how does the “soluble on expression in E. coli” value read?
Answer: soluble

Question: With “MEEPINVLLLGMDIGDTSDVSNKDAKRTDTIILANFDPITKEAKLISIPRDTRVKIGGKSQKINAAYPIGGEKLVKQLVGNILGVKVDYVVKVDYEGFRGIIDAIGGIDMYIEQDMNYDDPGQDLHIHFNKGETVHLDGKKAEEFFRWRKNNDGTGLVNGDVDRIKNQQKFINAVIDKVLSVSTITKIDSIAEILNKNIETNIPLDVTVAYGLKGLETDKNNIKMMTLPGEGKYVGNVSYYIPDEKATKELRSQLNSSNLSGRKNVIPSAARGDLSIKVLNCTKINGLAANVQKQLNENGYDKVDVGNGDPREKSEILIKDESSRAFMENDLKIENIKKGISSKYDGNGTYDVVILLGKDFKNFGEMKLEHHHHHH” as the sequence, how does the “soluble on expression in E. coli” value read?
Answer: soluble

Question: With “QSTSNKTLDTLIVTGTRISDRTAAESSSPIDIISQESLEATGTTELATALSRMVPSLNFPRPAVSDGNDAVRPAQLRGLSPDQVLVLVNGKRYHTTALVNLNEIQGRGSAPADLNTIPIAAIERIEVLRDGASAQYGSDAIAGVINIVLKGAGKGGSITGHYGEYKVKDGKQYELSGDTGLSFAGTGKVHFAAQGGHEDQTNRAVPYNDGIIRQRYGDPKINQGAFSYNGSYSPTEGVTFYSFGMVSRRKVLSNGFYRWADDARNRPEIYPEGFLPQIYNVANDTSWVSGMKASTAWGLNIDLSYNYGNNQLTFDVRNSLNNSLGLSSPTAFYAGGLEITQHVLNADFNKSVDWGHLAYPLNLAFGVEWRGEIFNEYQGEEASYINGGVRSSAGTLLPGAQVFSGFKPSDSGGFDRNSHSMYIDLEGNLTEKFSAGVAGRYEHYSDFSNTR” as the sequence, how does the “soluble on expression in E. coli” value read?
Answer: not soluble
